In PMC3480499, “Isolation of Reovirus T3D Mutants Capable of Infecting Human Tumor Cells Independent of Junction Adhesion Molecule-A” (PLoS ONE, 2012):
Numbering of substitutions follows the chain as printed. Names and notes keep the numbering of the source.

B1: reovirus type 3 Dearing (T3D) spike protein σ1, wild type (natural protein)
chain: MDPRLREEVVRLIIALTSDNGASLSKGLESRVSALEKTSQIHSDTILRITQGLDDANKRIIALEQSRDDLVASVSDAQLAISRLESSIGALQTVVNGLDSSVTQLGARVGQLETGLAELRVDHDNLVARVDTAERNIGSLTTELSTLTLRVTSIQADFESRISTLERTAVTSAGAPLSIRNNRMTMGLNDGLTLSGNNLAIRLPGNTGLNIQNGGLQFRFNTDQFQIVNNNLTLKTTVFDSINSRIGATEQSYVASAVTPLRLNSSTKVLDMLIDSSTLEINSSGQLTVRSTSPNLRYPIADVSGGIGMSPNYRFRQSMWIGIVSYSGSGLNWRVQVNSDIFIVDDYIHICLPAFDGFSIADGGDLSLNFVTGLLPPLLTGDTEPAFHNDVVTYGAQTVAIGLSSGGAPQYMSKNLWVEQWQDGVLRLRVEGGGSITHSNSKWPAMTVSYPRSFT
modifications: [35S]-methionine labelled
notes: a stop codon was introduced behind the S1 ORF so that the Myc-His tag of the vector is absent; also called wt σ1; wt T3D σ1
B2: reovirus T3D spike protein σ1 with the Q336R substitution (natural protein)
chain: B1 chain with Q336R
modifications: [35S]-methionine labelled
notes: Outer capsid (attachment/spike) protein σ1 of mammalian reovirus type 3 Dearing, S1 ORF without tag, with Q336R made by mutation PCR on pDGC-S1delTag; Q336R arose spontaneously in the jin-1 and jin-2 viruses; Carries only Q336R, not T193M of jin-1 or G187R of jin-2; Parent plasmid as for m1; also called σ1-Q336R; S1Q336R
B3: reovirus T3D spike protein σ1 with the Y313A substitution (natural protein)
chain: B1 chain with Y313A
modifications: [35S]-methionine labelled
notes: Outer capsid (attachment/spike) protein σ1 of mammalian reovirus type 3 Dearing, S1 ORF without tag, with Y313A made by mutation PCR on pDGC-S1delTag; Forms only intermediate trimers (shaft trimerized, head monomeric), no mature trimers; Parent plasmid as for m1; also called σ1-Y313A; S1Y313A

Target: the molecule itself
Assay: in vitro trimerization assay (mild SDS-PAGE at 4°C); [35S]-methionine labelled in vitro transcription-translation products incubated in sample buffer (2% SDS, 2.5% β-mercaptoethanol) 30 min at 37°C (or boiled 5 min to disrupt trimers), run on a 10% SDS-polyacrylamide gel kept at 4°C, autoradiography

Row | Protein | stoichiometry N
1 | B1 | 3
2 | B2 | 3
3 | B3 | 3
